Target: endogenous MpUVR8 of Marchantia polymorpha (Marchantia polymorpha (endogenous in Tak-1 gemmalings))
Assay: cross-linking

## endogenous MpUVR8 of Marchantia polymorpha (natural protein)
  stoichiometry N: 2
